Data from patent US20250154231A1.
Read-outs that look alike come from different tables or passages of the source.

Assays:
Test in all cases: cell-based or functional assay
[1] = molecular target: SARS-CoV-2 Alpha spike (S) protein (SARS-CoV-2) (UniProt P0DTC2)
[2] = molecular target: SARS-CoV-2 Beta spike (S) protein (SARS-CoV-2) (UniProt P0DTC2)
[3] = molecular target: SARS-CoV-2 Delta spike (S) protein (SARS-CoV-2) (UniProt P0DTC2)
[4] = molecular target: SARS-CoV-2 Gamma spike (S) protein (SARS-CoV-2) (UniProt P0DTC2)
[5] = molecular target: SARS-CoV-2 Omicron BA.1 spike (S) protein of the live isolate (SARS-CoV-2) (UniProt P0DTC2)
[6] = molecular target: SARS-CoV-2 Omicron BA.1.1 spike (S) protein (SARS-CoV-2) (UniProt P0DTC2)
[7] = molecular target: SARS-CoV-2 Omicron BA.2 spike (S) protein (SARS-CoV-2) (UniProt P0DTC2)
[8] = molecular target: SARS-CoV-2 Victoria spike (S) protein (SARS-CoV-2) (UniProt P0DTC2)
[9] = molecular target: SARS-CoV-2 spike (S) protein, Omicron BA.1 (SARS-CoV-2) (UniProt P0DTC2)
[10] = molecular target: SARS-CoV-2 spike (S) protein, Omicron BA.1.1 (SARS-CoV-2) (UniProt P0DTC2)
[11] = molecular target: SARS-CoV-2 spike (S) protein, Omicron BA.2 (SARS-CoV-2) (UniProt P0DTC2)
[12] = molecular target: SARS-CoV-2 spike (S) protein, Omicron BA.3 (SARS-CoV-2) (UniProt P0DTC2)
[13] = molecular target: SARS-CoV-2 spike (S) protein, Omicron BA.4.6 (SARS-CoV-2) (UniProt P0DTC2)
[14] = molecular target: SARS-CoV-2 spike (S) protein, Omicron BA.4/5 (SARS-CoV-2) (UniProt P0DTC2)
[15] = molecular target: SARS-CoV-2 spike (S) protein, Victoria strain (SARS-CoV-2) (UniProt P0DTC2)
[16] = molecular target: SARS-CoV-2 spike (S) protein, Omicron BA.2.75 (SARS-CoV-2) (UniProt P0DTC2)
[17] = molecular target: SARS-CoV-2 spike (S) protein, Omicron BA.2 (SARS-CoV-2) (UniProt P0DTC2); remark: listed apart in the source
[18] = molecular target: SARS-CoV-2 spike (S) protein, Omicron BA.2.3.20 (SARS-CoV-2) (UniProt P0DTC2)
[19] = molecular target: SARS-CoV-2 spike (S) protein, Omicron BA.2.75 (SARS-CoV-2) (UniProt P0DTC2); remark: listed apart in the source
[20] = molecular target: SARS-CoV-2 spike (S) protein, Omicron BA.2.75.2 (SARS-CoV-2) (UniProt P0DTC2)
[21] = molecular target: SARS-CoV-2 spike (S) protein, Omicron BA.4.6 (SARS-CoV-2) (UniProt P0DTC2); remark: listed apart in the source
[22] = molecular target: SARS-CoV-2 spike (S) protein, Omicron BA.4/5 (SARS-CoV-2) (UniProt P0DTC2); remark: listed apart in the source
[23] = molecular target: SARS-CoV-2 spike (S) protein, Omicron BJ.1 (SARS-CoV-2) (UniProt P0DTC2)
[24] = molecular target: SARS-CoV-2 spike (S) protein, Victoria strain (SARS-CoV-2) (UniProt P0DTC2); remark: listed apart in the source

| Substance | IC50, authentic virus neutralization [1] [µg/mL] | IC50, authentic virus neutralization [2] [µg/mL] | IC50, authentic virus neutralization [3] [µg/mL] | IC50, authentic virus neutralization [4] [µg/mL] | IC50, authentic virus neutralization [5] [µg/mL] | IC50, authentic virus neutralization [6] [µg/mL] | IC50, pseudoviral neutralization [9] [µg/mL] | pseudovirus neutralisation IC50 [9] [µg/mL] | IC50, pseudoviral neutralization [10] [µg/mL] | pseudovirus neutralisation IC50 [10] [µg/mL] | IC50, pseudoviral neutralization [11] [µg/mL] | pseudovirus neutralisation IC50 [11] [µg/mL] | IC50, pseudoviral neutralization [12] [µg/mL] | pseudovirus neutralisation IC50 [12] [µg/mL] | IC50, pseudoviral neutralization [13] [µg/mL] | IC50, pseudoviral neutralization [14] [µg/mL] | pseudovirus neutralisation IC50 [14] [µg/mL] | IC50, pseudoviral neutralization [15] [µg/mL] | pseudovirus neutralisation IC50 [15] [µg/mL] | pseudovirus neutralisation IC50 [16] [µg/mL] | other results |
| --- | --- | --- | --- | --- | --- | --- | --- | --- | --- | --- | --- | --- | --- | --- | --- | --- | --- | --- | --- | --- | --- |
| ADG20 (antibody) | 0.006 | 0.01 | 0.006 | 0.009 | 1.1 | 1.27 | 0.348 | 0.348 | 0.253 | 0.253 | > 10 | > 10 | > 10 | > 10 | > 10 | > 10 | > 10 | 0.003 | 0.003 | > 10 | IC50, authentic virus neutralization [7]: > 10 µg/mL; IC50, authentic virus neutralization [8]: 0.004 µg/mL; IC50, pseudoviral neutralization [17]: > 10 µg/mL; IC50, pseudoviral neutralization [18]: > 10 µg/mL; IC50, pseudoviral neutralization [19]: > 10 µg/mL; IC50, pseudoviral neutralization [20]: > 10 µg/mL; IC50, pseudoviral neutralization [21]: > 10 µg/mL; IC50, pseudoviral neutralization [22]: > 10 µg/mL; IC50, pseudoviral neutralization [23]: > 10 µg/mL |
| ADG30 (antibody) | 0.016 | 0.029 | 0.033 | 0.002 | > 10 | > 10 | > 10 | > 10 | > 10 | > 10 | > 10 | > 10 | > 10 | > 10 | > 10 | > 10 | > 10 | 0.014 | 0.014 | > 10 | IC50, authentic virus neutralization [7]: > 10 µg/mL; IC50, authentic virus neutralization [8]: 0.007 µg/mL |
| AZD1061 (antibody) | 0.012 | 0.014 | 0.038 | 0.007 | 3.49 | > 10 | 0.308 | 0.308 | > 10 | > 10 | 0.008 | 0.008 | 0.019 | 0.019 | > 10 | 0.015 | 0.015 | 0.002 | 0.002 | 0.021 | IC50, authentic virus neutralization [7]: 0.028 µg/mL; IC50, authentic virus neutralization [8]: 0.013 µg/mL; IC50, pseudoviral neutralization [17]: 0.008 µg/mL; IC50, pseudoviral neutralization [18]: > 10 µg/mL; IC50, pseudoviral neutralization [19]: 0.021 µg/mL; IC50, pseudoviral neutralization [20]: > 10 µg/mL; IC50, pseudoviral neutralization [21]: > 10 µg/mL; IC50, pseudoviral neutralization [22]: 0.015 µg/mL; IC50, pseudoviral neutralization [23]: > 10 µg/mL; IC50, pseudoviral neutralization [24]: 0.002 µg/mL |
| Ly-CoV16 (antibody) | 3.23 | > 10 | 0.012 | > 10 | > 10 | > 10 | > 10 | > 10 | > 10 | > 10 | > 10 | > 10 | > 10 | > 10 | > 10 | > 10 | > 10 | 0.014 | 0.014 | > 10 | IC50, authentic virus neutralization [7]: > 10 µg/mL; IC50, authentic virus neutralization [8]: 0.034 µg/mL; IC50, pseudoviral neutralization [18]: > 10 µg/mL; IC50, pseudoviral neutralization [19]: > 10 µg/mL; IC50, pseudoviral neutralization [20]: > 10 µg/mL; IC50, pseudoviral neutralization [21]: > 10 µg/mL; IC50, pseudoviral neutralization [22]: > 10 µg/mL; IC50, pseudoviral neutralization [23]: > 10 µg/mL; IC50, pseudoviral neutralization [24]: 0.014 µg/mL |
| Ly-CoV555 (antibody) |  |  |  |  |  |  | > 10 | > 10 | > 10 | > 10 | > 10 | > 10 | > 10 | > 10 | > 10 | > 10 | > 10 | 0.002 | 0.002 | > 10 | IC50, pseudoviral neutralization [17]: > 10 µg/mL; IC50, pseudoviral neutralization [18]: > 10 µg/mL; IC50, pseudoviral neutralization [19]: > 10 µg/mL; IC50, pseudoviral neutralization [20]: > 10 µg/mL; IC50, pseudoviral neutralization [21]: > 10 µg/mL; IC50, pseudoviral neutralization [22]: > 10 µg/mL; IC50, pseudoviral neutralization [23]: > 10 µg/mL; IC50, pseudoviral neutralization [24]: 0.002 µg/mL |
